Like-named read-outs stand apart in the source and are kept apart here.
Tests used:
Assay in all cases: plate-based fluorescence binding assay
TrkB [1] = target: T1, TrkB (Rattus norvegicus, UniProt Q63604)
T1 chain: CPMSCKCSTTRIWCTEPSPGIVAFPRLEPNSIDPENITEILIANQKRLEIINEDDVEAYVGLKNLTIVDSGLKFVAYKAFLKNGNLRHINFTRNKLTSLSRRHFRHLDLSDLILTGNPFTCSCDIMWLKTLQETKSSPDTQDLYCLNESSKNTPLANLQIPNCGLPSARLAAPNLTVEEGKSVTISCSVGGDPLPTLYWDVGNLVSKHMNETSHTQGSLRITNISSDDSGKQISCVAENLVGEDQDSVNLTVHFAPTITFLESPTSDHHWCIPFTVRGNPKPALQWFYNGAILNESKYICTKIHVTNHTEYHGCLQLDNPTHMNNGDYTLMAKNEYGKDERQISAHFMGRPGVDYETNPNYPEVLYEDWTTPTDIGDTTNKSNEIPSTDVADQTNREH

TrkB [2] = target: T1, TrkB
TrkB [3] = target: T1, TrkB
TrkB [4] = target: T1, TrkB

- Kd (TrkB [1]): 0.00179 nM
- Kd (TrkB [2]): 0.53 nM
- Kd (TrkB [3]): 3.37 nM
- Kd (TrkB [4]): 0.00011 nM
B1: BDNF (protein)
chain: HSDPARRGELSVCDSISEWVTAADKKTAVDMSGGTVTVLEKVPVSKGQLKQYFYETKCNPMGYTKEGCRGIDKRHWNSQCRTTQSYVRALTMDSKKRIGWRFIRIDTSCVCTLTIKRGR
